Measurements published in patent US20240270846A1 (published 2024).

Molecular target: T1, CD3 epsilon homodimer protein (UniProt P07766 23-126)
T1 construct: also called CD3 (CD3 epsilon)
Test: SPR, CD3e homodimer on chip;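 also: surface plasmon resonance at 25 degrees C, antibodies flowed as analyte over CD3 epsilon homodimer amine-coupled to a CM4 chip, running buffer HBS-EP+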

T1 sequence (P07766 23-126): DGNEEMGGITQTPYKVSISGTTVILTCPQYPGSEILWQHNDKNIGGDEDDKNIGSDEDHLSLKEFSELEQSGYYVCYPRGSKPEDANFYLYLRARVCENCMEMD

Binder	ratio of amounts bound (altered form / unaltered GLS3000 antibody)
GLS3000 H27dQ one-arm antibody (H chain CE115HA000) (antibody, human IgG1, kappa, L234A L235A, N297A, name in Kabat numbering, one-arm antibody) heavy: QVQLVESGGGVVQPGRSLRLSCAASGFTFSNAWMHWVRQAPGKGLEWVAQIKAKSNNYATYYAESVKGRFTISRDDSKNSLYLQMNSLKTEDTAVYYCRYVHYGAYYGVDAWGQGTTVTVSSASTKGPSVFPLAPSSKSTSGGTAALGCLVKDYFPEPVTVSWNSGALTSGVHTFPAVLQSSGLYSLSSVVTVPSSSLGTQTYICNVNHKPSNTKVDKKVEPKSCDKTHTCPPCPAPEAAGGPSVFLFPPKPKDTLMISRTPEVTCVVVDVSHEDPEVKFNWYVDGVEVHNAKTKPREEQYASTYRVVSVLTVLHQDWLNGKEYKCKVSNKALPAPIEKTISKAKGQPREPQVYTLPPSRCELTKNQVSLSCAVKGFYPSDIAVEWESNGQPENNYKTTPPVLDSDGSFFLVSKLTVDKSRWQQGNVFSCSVMHEALHNHYTQKSLSLSPDYKDDDDK EPKSSDKTHTCPPCPAPELLGGPSVFLFPPKPKDTLMISRTPEVTCVVVDVSHEDPEVKFNWYVDGVEVHNAKTKPREEQYNSTYRVVSVLTVLHQDWLNGKEYKCKVSNKALPAPIEKTISKAKGQPREPQVCTLPPSRDELTKNQVSLWCLVKGFYPSDIAVEWESNGQPENNYKTTPPVLDSDGSFFLYSKLTVDKSRWQQGNVFSCSVMHEALHNRYTQKSLSLSP light: DIVMTQSPLSLPVTPGEPASISCRSSQSLVQSNRNTYLHWYQQKPGQAPRLLIYKVSNRFSGVPDRFSGSGSGTDFTLKISRVEAEDVGVYYCGQGTQVPYTFGQGTKLEIKRTVAAPSVFIFPPSDEQLKSGTASVVCLLNNFYPREAKVQWKVDNALQSGNSQESVTEQDSKDSTYSLSSTLTLSKADYEKHKVYACEVTHQGLSSPVTKSFNRGEC	0.25
GLS3000 H27dR one-arm antibody (H chain CE115HA000) (antibody, human IgG1, kappa, L234A L235A, N297A, name in Kabat numbering, one-arm antibody) heavy: QVQLVESGGGVVQPGRSLRLSCAASGFTFSNAWMHWVRQAPGKGLEWVAQIKAKSNNYATYYAESVKGRFTISRDDSKNSLYLQMNSLKTEDTAVYYCRYVHYGAYYGVDAWGQGTTVTVSSASTKGPSVFPLAPSSKSTSGGTAALGCLVKDYFPEPVTVSWNSGALTSGVHTFPAVLQSSGLYSLSSVVTVPSSSLGTQTYICNVNHKPSNTKVDKKVEPKSCDKTHTCPPCPAPEAAGGPSVFLFPPKPKDTLMISRTPEVTCVVVDVSHEDPEVKFNWYVDGVEVHNAKTKPREEQYASTYRVVSVLTVLHQDWLNGKEYKCKVSNKALPAPIEKTISKAKGQPREPQVYTLPPSRCELTKNQVSLSCAVKGFYPSDIAVEWESNGQPENNYKTTPPVLDSDGSFFLVSKLTVDKSRWQQGNVFSCSVMHEALHNHYTQKSLSLSPDYKDDDDK EPKSSDKTHTCPPCPAPELLGGPSVFLFPPKPKDTLMISRTPEVTCVVVDVSHEDPEVKFNWYVDGVEVHNAKTKPREEQYNSTYRVVSVLTVLHQDWLNGKEYKCKVSNKALPAPIEKTISKAKGQPREPQVCTLPPSRDELTKNQVSLWCLVKGFYPSDIAVEWESNGQPENNYKTTPPVLDSDGSFFLYSKLTVDKSRWQQGNVFSCSVMHEALHNRYTQKSLSLSP light: DIVMTQSPLSLPVTPGEPASISCRSSQSLVRSNRNTYLHWYQQKPGQAPRLLIYKVSNRFSGVPDRFSGSGSGTDFTLKISRVEAEDVGVYYCGQGTQVPYTFGQGTKLEIKRTVAAPSVFIFPPSDEQLKSGTASVVCLLNNFYPREAKVQWKVDNALQSGNSQESVTEQDSKDSTYSLSSTLTLSKADYEKHKVYACEVTHQGLSSPVTKSFNRGEC	0.31
GLS3000 H27dS one-arm antibody (H chain CE115HA000) (antibody, human IgG1, kappa, L234A L235A, N297A, name in Kabat numbering, one-arm antibody) heavy: QVQLVESGGGVVQPGRSLRLSCAASGFTFSNAWMHWVRQAPGKGLEWVAQIKAKSNNYATYYAESVKGRFTISRDDSKNSLYLQMNSLKTEDTAVYYCRYVHYGAYYGVDAWGQGTTVTVSSASTKGPSVFPLAPSSKSTSGGTAALGCLVKDYFPEPVTVSWNSGALTSGVHTFPAVLQSSGLYSLSSVVTVPSSSLGTQTYICNVNHKPSNTKVDKKVEPKSCDKTHTCPPCPAPEAAGGPSVFLFPPKPKDTLMISRTPEVTCVVVDVSHEDPEVKFNWYVDGVEVHNAKTKPREEQYASTYRVVSVLTVLHQDWLNGKEYKCKVSNKALPAPIEKTISKAKGQPREPQVYTLPPSRCELTKNQVSLSCAVKGFYPSDIAVEWESNGQPENNYKTTPPVLDSDGSFFLVSKLTVDKSRWQQGNVFSCSVMHEALHNHYTQKSLSLSPDYKDDDDK EPKSSDKTHTCPPCPAPELLGGPSVFLFPPKPKDTLMISRTPEVTCVVVDVSHEDPEVKFNWYVDGVEVHNAKTKPREEQYNSTYRVVSVLTVLHQDWLNGKEYKCKVSNKALPAPIEKTISKAKGQPREPQVCTLPPSRDELTKNQVSLWCLVKGFYPSDIAVEWESNGQPENNYKTTPPVLDSDGSFFLYSKLTVDKSRWQQGNVFSCSVMHEALHNRYTQKSLSLSP light: DIVMTQSPLSLPVTPGEPASISCRSSQSLVSSNRNTYLHWYQQKPGQAPRLLIYKVSNRFSGVPDRFSGSGSGTDFTLKISRVEAEDVGVYYCGQGTQVPYTFGQGTKLEIKRTVAAPSVFIFPPSDEQLKSGTASVVCLLNNFYPREAKVQWKVDNALQSGNSQESVTEQDSKDSTYSLSSTLTLSKADYEKHKVYACEVTHQGLSSPVTKSFNRGEC	0.32
GLS3000 H27dV one-arm antibody (H chain CE115HA000) (antibody, human IgG1, kappa, L234A L235A, N297A, name in Kabat numbering, one-arm antibody) heavy: QVQLVESGGGVVQPGRSLRLSCAASGFTFSNAWMHWVRQAPGKGLEWVAQIKAKSNNYATYYAESVKGRFTISRDDSKNSLYLQMNSLKTEDTAVYYCRYVHYGAYYGVDAWGQGTTVTVSSASTKGPSVFPLAPSSKSTSGGTAALGCLVKDYFPEPVTVSWNSGALTSGVHTFPAVLQSSGLYSLSSVVTVPSSSLGTQTYICNVNHKPSNTKVDKKVEPKSCDKTHTCPPCPAPEAAGGPSVFLFPPKPKDTLMISRTPEVTCVVVDVSHEDPEVKFNWYVDGVEVHNAKTKPREEQYASTYRVVSVLTVLHQDWLNGKEYKCKVSNKALPAPIEKTISKAKGQPREPQVYTLPPSRCELTKNQVSLSCAVKGFYPSDIAVEWESNGQPENNYKTTPPVLDSDGSFFLVSKLTVDKSRWQQGNVFSCSVMHEALHNHYTQKSLSLSPDYKDDDDK EPKSSDKTHTCPPCPAPELLGGPSVFLFPPKPKDTLMISRTPEVTCVVVDVSHEDPEVKFNWYVDGVEVHNAKTKPREEQYNSTYRVVSVLTVLHQDWLNGKEYKCKVSNKALPAPIEKTISKAKGQPREPQVCTLPPSRDELTKNQVSLWCLVKGFYPSDIAVEWESNGQPENNYKTTPPVLDSDGSFFLYSKLTVDKSRWQQGNVFSCSVMHEALHNRYTQKSLSLSP light: DIVMTQSPLSLPVTPGEPASISCRSSQSLVVSNRNTYLHWYQQKPGQAPRLLIYKVSNRFSGVPDRFSGSGSGTDFTLKISRVEAEDVGVYYCGQGTQVPYTFGQGTKLEIKRTVAAPSVFIFPPSDEQLKSGTASVVCLLNNFYPREAKVQWKVDNALQSGNSQESVTEQDSKDSTYSLSSTLTLSKADYEKHKVYACEVTHQGLSSPVTKSFNRGEC	0.3
GLS3000 H27dT one-arm antibody (H chain CE115HA000) (antibody, human IgG1, kappa, L234A L235A, N297A, name in Kabat numbering, one-arm antibody) heavy: QVQLVESGGGVVQPGRSLRLSCAASGFTFSNAWMHWVRQAPGKGLEWVAQIKAKSNNYATYYAESVKGRFTISRDDSKNSLYLQMNSLKTEDTAVYYCRYVHYGAYYGVDAWGQGTTVTVSSASTKGPSVFPLAPSSKSTSGGTAALGCLVKDYFPEPVTVSWNSGALTSGVHTFPAVLQSSGLYSLSSVVTVPSSSLGTQTYICNVNHKPSNTKVDKKVEPKSCDKTHTCPPCPAPEAAGGPSVFLFPPKPKDTLMISRTPEVTCVVVDVSHEDPEVKFNWYVDGVEVHNAKTKPREEQYASTYRVVSVLTVLHQDWLNGKEYKCKVSNKALPAPIEKTISKAKGQPREPQVYTLPPSRCELTKNQVSLSCAVKGFYPSDIAVEWESNGQPENNYKTTPPVLDSDGSFFLVSKLTVDKSRWQQGNVFSCSVMHEALHNHYTQKSLSLSPDYKDDDDK EPKSSDKTHTCPPCPAPELLGGPSVFLFPPKPKDTLMISRTPEVTCVVVDVSHEDPEVKFNWYVDGVEVHNAKTKPREEQYNSTYRVVSVLTVLHQDWLNGKEYKCKVSNKALPAPIEKTISKAKGQPREPQVCTLPPSRDELTKNQVSLWCLVKGFYPSDIAVEWESNGQPENNYKTTPPVLDSDGSFFLYSKLTVDKSRWQQGNVFSCSVMHEALHNRYTQKSLSLSP light: DIVMTQSPLSLPVTPGEPASISCRSSQSLVTSNRNTYLHWYQQKPGQAPRLLIYKVSNRFSGVPDRFSGSGSGTDFTLKISRVEAEDVGVYYCGQGTQVPYTFGQGTKLEIKRTVAAPSVFIFPPSDEQLKSGTASVVCLLNNFYPREAKVQWKVDNALQSGNSQESVTEQDSKDSTYSLSSTLTLSKADYEKHKVYACEVTHQGLSSPVTKSFNRGEC	0.29
GLS3000 H27dW one-arm antibody (H chain CE115HA000) (antibody, human IgG1, kappa, L234A L235A, N297A, name in Kabat numbering, one-arm antibody) heavy: QVQLVESGGGVVQPGRSLRLSCAASGFTFSNAWMHWVRQAPGKGLEWVAQIKAKSNNYATYYAESVKGRFTISRDDSKNSLYLQMNSLKTEDTAVYYCRYVHYGAYYGVDAWGQGTTVTVSSASTKGPSVFPLAPSSKSTSGGTAALGCLVKDYFPEPVTVSWNSGALTSGVHTFPAVLQSSGLYSLSSVVTVPSSSLGTQTYICNVNHKPSNTKVDKKVEPKSCDKTHTCPPCPAPEAAGGPSVFLFPPKPKDTLMISRTPEVTCVVVDVSHEDPEVKFNWYVDGVEVHNAKTKPREEQYASTYRVVSVLTVLHQDWLNGKEYKCKVSNKALPAPIEKTISKAKGQPREPQVYTLPPSRCELTKNQVSLSCAVKGFYPSDIAVEWESNGQPENNYKTTPPVLDSDGSFFLVSKLTVDKSRWQQGNVFSCSVMHEALHNHYTQKSLSLSPDYKDDDDK EPKSSDKTHTCPPCPAPELLGGPSVFLFPPKPKDTLMISRTPEVTCVVVDVSHEDPEVKFNWYVDGVEVHNAKTKPREEQYNSTYRVVSVLTVLHQDWLNGKEYKCKVSNKALPAPIEKTISKAKGQPREPQVCTLPPSRDELTKNQVSLWCLVKGFYPSDIAVEWESNGQPENNYKTTPPVLDSDGSFFLYSKLTVDKSRWQQGNVFSCSVMHEALHNRYTQKSLSLSP light: DIVMTQSPLSLPVTPGEPASISCRSSQSLVWSNRNTYLHWYQQKPGQAPRLLIYKVSNRFSGVPDRFSGSGSGTDFTLKISRVEAEDVGVYYCGQGTQVPYTFGQGTKLEIKRTVAAPSVFIFPPSDEQLKSGTASVVCLLNNFYPREAKVQWKVDNALQSGNSQESVTEQDSKDSTYSLSSTLTLSKADYEKHKVYACEVTHQGLSSPVTKSFNRGEC	0.39
